Results: patent publication US20190062420A1 (Janssen / Centocor, published 2019)
Blank lines part the entries; values can stand above or below the binder they belong to.

How the values were obtained:
[1] = molecular target: T1, human FcγRIIB (NM_004001) expressed on cells (human, UniProt P31994 43-310); experiment: flow cytometry; Raji cells (express predominantly FcγRIIB)
T1 construct: Transiently expressed on Expi293F cells; also called Expi293F FcγRIIB; HEK293F cells expressing FcγRIIB
T1 sequence: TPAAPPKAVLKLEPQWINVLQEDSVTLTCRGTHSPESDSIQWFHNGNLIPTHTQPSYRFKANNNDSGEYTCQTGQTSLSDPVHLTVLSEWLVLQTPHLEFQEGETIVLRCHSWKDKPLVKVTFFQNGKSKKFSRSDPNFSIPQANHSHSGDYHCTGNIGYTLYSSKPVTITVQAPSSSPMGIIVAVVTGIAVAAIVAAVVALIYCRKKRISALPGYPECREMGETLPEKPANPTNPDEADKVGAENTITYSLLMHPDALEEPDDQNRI
Experimental: (§1) 2×10⁵ cells per well were seeded in 96-well plate and blocked in BSA Stain Buffer (BD Biosciences, San Jose, USA) for 30 min at 4° C. Cells were incubated with test mAbtyrin on ice for 1.5 h at 4° C. After being washed twice with BSA stain buffer, the cells were incubated with R-PE labeled anti-human or anti-mouse IgG secondary antibody (Jackson Immunoresearch Laboratories) for 45 min at 4° C. The cells were washed twice in stain buffer and then resuspended in 150 μL of Stain Buffer containing 1:200 diluted DRAQ7 live/dead stain (Cell Signaling Technology, Danvers, USA). PE and DRAQ7 signals of the stained cells were detected by Miltenyi MACSQuant flow cytometer (Miltenyi Biotec, Auburn, USA) using B2 and B4 channel respectively. Live cells were gated on DRAQ7 exclusion and the geometric mean fluorescence signals were determined for at least 10,000 live events collected. FlowJo software (Tree Star) was used for analysis. Data was plotted as the logarithm of antibody concentration versus mean fluorescence signals. Nonlinear regression analysis was performed by GraphPad Prism 6 (GraphPad Software, Inc.) and EC₅₀ values were calculated.
Raji cell is a cell line derived from B cells that express predominantly FcγRIIB. The binding of mAbtyrins on Raji cells were investigated by flow cytometry assay described for testing mAbtyrin binding to FcγR. Binding of the mAbtyrins were detected by flow cytometry using a PE-labeled Goat F(ab′) against Human IgG(γ).

[2] = molecular target: T2, human FcγRIIIA (NM_000569) expressed on cells (human, UniProt P08637 17-254); experiment: flow cytometry; Expi293F cells transfected with FcγRIIIA
T2 construct: Transiently expressed on Expi293F cells; also used here for FcγRIIIA on the engineered effector cells of the ADCC reporter bioassay (Promega); also called FcγIIIA
Experimental: (§2) Plasmids expressing cDNAs encoding human FcγRI (NM_000566) (SEQ ID NO: 44), FcγRIIA (NM_021642) (SEQ ID NO: 2), FcγRIIB (NM_004001) (SEQ ID NO: 3), and FcγRIIIA (NM_000569) (SEQ ID NO: 45) (Origene) were transiently transfected into Expi293F cells by ExpiFectamine293 transfection kit (Life Technologies). Flow cytometry assays were performed 48 h after transfection.
as §1

[3] = molecular target: T3, human FcγRI (NM_000566) expressed on cells (human, UniProt P12314 16-374); experiment: flow cytometry; Expi293F cells transfected with FcγRI
T3 construct: Transiently expressed on Expi293F cells
Experimental: as §2, §1

FcγRIIB protein = molecular target: T4, FcγRIIB protein (human, UniProt P31994 43-217, biotinylated (SureLINK Biotin Kit) in the ELISA of Example 1); experiment: cell-based or functional assay
T4 sequence: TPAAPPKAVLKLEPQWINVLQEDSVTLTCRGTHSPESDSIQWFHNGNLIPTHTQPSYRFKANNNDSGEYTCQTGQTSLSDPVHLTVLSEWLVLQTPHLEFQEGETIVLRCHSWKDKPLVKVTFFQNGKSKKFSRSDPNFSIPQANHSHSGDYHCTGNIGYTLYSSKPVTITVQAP

FcγRIIA protein = molecular target: T5, FcγRIIA protein (human, UniProt P12318 36-217, biotinylated (SureLINK Biotin Kit) in the ELISA of Example 1); experiment: cell-based or functional assay
T5 sequence: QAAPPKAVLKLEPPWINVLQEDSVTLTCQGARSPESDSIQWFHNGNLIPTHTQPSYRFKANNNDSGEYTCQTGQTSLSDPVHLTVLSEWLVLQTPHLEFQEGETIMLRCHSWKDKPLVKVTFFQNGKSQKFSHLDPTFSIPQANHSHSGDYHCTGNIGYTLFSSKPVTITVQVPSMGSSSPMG

[4] = molecular target: T1, human FcγRIIB (NM_004001) expressed on …; experiment: cell-based or functional assay
[5] = molecular target: T1, human FcγRIIB (NM_004001) expressed on …; experiment: flow cytometry; Expi293F cells transfected with FcγRIIB
Experimental: as §2, §1

[6] = molecular target: T2, human FcγRIIIA (NM_000569) expressed on …; experiment: cell-based or functional assay
[7] = molecular target: T6, human FcγRIIA (NM_021642) expressed on cells (human, UniProt P12318 36-317); experiment: cell-based or functional assay
T6 sequence: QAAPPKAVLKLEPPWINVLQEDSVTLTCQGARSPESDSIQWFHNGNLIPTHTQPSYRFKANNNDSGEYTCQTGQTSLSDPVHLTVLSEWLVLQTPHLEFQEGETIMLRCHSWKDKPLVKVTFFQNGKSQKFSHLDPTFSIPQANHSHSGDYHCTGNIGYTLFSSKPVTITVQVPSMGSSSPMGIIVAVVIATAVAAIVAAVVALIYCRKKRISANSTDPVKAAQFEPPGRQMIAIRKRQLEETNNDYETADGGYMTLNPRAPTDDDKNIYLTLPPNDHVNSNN

[8] = molecular target: T7, human OX40 expressed on HEK-Blue: OX40 cells (human, UniProt P43489 29-277); experiment: flow cytometry; HEK-Blue: OX40 cells
T7 construct: also called CD134
T7 sequence: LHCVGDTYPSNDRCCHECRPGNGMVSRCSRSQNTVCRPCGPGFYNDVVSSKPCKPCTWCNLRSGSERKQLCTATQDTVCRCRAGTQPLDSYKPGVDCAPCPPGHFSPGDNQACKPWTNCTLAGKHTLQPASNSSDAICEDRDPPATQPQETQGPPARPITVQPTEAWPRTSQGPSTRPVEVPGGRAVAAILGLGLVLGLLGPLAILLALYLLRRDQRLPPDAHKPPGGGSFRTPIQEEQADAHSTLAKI
Experimental: as §1
The binding of mAbtyrins on OX40 expressed on cell surface were investigated by flow cytometry assay described for testing mAbtyrin binding to FcγR. A stable HEK-Blue reporter cell line expressing human OX40 (HEK-Blue: OX40) was established by transfection OX40 expression plasmid (pUNO1-hOX40) into HEK-Blue™ Null 1 cells engineered to express a secreted embryonic alkaline phosphatase (SEAP) reporter gene under the control of NF-κB-inducible promoter (IFN-β minimal promoter). mAbtyrins were incubated with HEK-Blue: OX40 cells and the binding was detected by flow cytometry using a PE-labeled Goat F(ab′)₂ against Human IgG(γ).

[9] = molecular target: T6, human FcγRIIA (NM_021642) expressed on …; experiment: flow cytometry; Expi293F cells transfected with FcγRIIA
Experimental: as §2, §1

T2 sequence (P08637 17-254 limits assumed): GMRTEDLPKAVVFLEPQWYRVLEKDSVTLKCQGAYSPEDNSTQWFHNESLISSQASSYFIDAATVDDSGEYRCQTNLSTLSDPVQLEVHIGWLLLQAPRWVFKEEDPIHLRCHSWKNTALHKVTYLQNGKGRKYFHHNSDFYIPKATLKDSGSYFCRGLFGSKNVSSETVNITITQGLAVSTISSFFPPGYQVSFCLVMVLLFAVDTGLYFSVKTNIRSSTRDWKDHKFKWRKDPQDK
T3 sequence (P12314 16-374 limits assumed): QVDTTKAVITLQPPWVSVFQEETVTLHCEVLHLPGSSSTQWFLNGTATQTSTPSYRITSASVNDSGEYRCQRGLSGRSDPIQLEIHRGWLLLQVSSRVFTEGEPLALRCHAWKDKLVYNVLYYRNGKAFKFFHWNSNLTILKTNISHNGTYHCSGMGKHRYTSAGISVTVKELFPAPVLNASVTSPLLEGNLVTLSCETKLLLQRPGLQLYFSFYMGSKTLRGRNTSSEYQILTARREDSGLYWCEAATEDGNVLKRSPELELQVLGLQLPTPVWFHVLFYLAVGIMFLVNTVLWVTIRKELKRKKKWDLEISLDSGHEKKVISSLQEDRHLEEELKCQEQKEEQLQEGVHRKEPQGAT

- EC50 [1]: 3.44 µg/mL
- EC50 [2]: > 10 µg/mL
- EC50 [3]: > 10 µg/mL
- IFNγ production by activated CD4 T cells, plate-coated FcγRIIb (FcγRIIB protein): 89 pg/mL
- TNFα production by activated CD4 T cells, plate-coated FcγRIIb (FcγRIIB protein): 30 pg/mL
- IFNγ production by activated CD4 T cells, plate-coated FcγRIIA (FcγRIIA protein): 153 pg/mL
- TNFα production by activated CD4 T cells, plate-coated FcγRIIA (FcγRIIA protein): 30 pg/mL
- % activity at 1 µg/ml with Raji cells (HEK-Blue: OX40 NF-κB reporter) [4]: 76%
- EC50 [5]: 0.941 µg/mL
- ADCC (fold activation) at 1 µg/ml [6]: 1 fold
- ADCP EC50 [7]: 0.0165 µg/mL
- EC50 [8]: 0.196 µg/mL
- EC50 [9]: 0.054 µg/mL
B1: OX40SF2IgG2sigma_R2BS29_LC-C (bispecific antibody)
heavy: QVQLVQSGAEVKKPGSSVKVSCKASGYTFKDYTMHWVRQAPGQGLEWIGGIYPNNGGSTYNQNFKDRVTLTADKSTSTAYMELSSLRSEDTAVYYCARMGYHGPHLDFDVWGQGTTVTVSSASTKGPSVFPLAPCSRSTSESTAALGCLVKDYFPEPVTVSWNSGALTSGVHTFPAVLQSSGLYSLSSVVTVPSSNFGTQTYTCNVDHKPSNTKVDKTVERKCCVECPPCPAPPAAASSVFLFPPKPKDTLMISRTPEVTCVVVDVSAEDPEVQFNWYVDGVEVHNAKTKPREEQFNSTFRVVSVLTVLHQDWLNGKEYKCKVSNKGLPSSIEKTISKTKGQPREPQVYTLPPSREEMTKNQVSLTCLVKGFYPSDIAVEWESNGQPENNYKTTPPMLDSDGSFFLYSKLTVDKSRWQQGNVFSCSVMHEALHNHYTQKSLSLSPGK
light: DIQMTQSPSSLSASVGDRVTITCKASQDVGAAVAWYQQKPGKAPKLLIYWASTRHTGVPSRFSGSGSGTDFTLTISSLQPEDFATYYCQQYINYPLTFGGGTKVEIKRTVAAPSVFIFPPSDEQLKSGTASVVCLLNNFYPREAKVQWKVDNALQSGNSQESVTEQDSKDSTYSLSSTLTLSKADYEKHKVYACEVTHQGLSSPVTKSFNRGECGGGGSGGGGSGGGGSGGGGSMLPAPKNLVVSRVTEDSARLSWTAPDAAFDSFPIYYWEYRVGGEAIVLTVPGSERSYDLTGLKPGTEYFVYINGVKGGEESRPLSAIFTT
notes: mAbtyrin: linker and R2BS29 FN3 domain at the C-terminus of the light chain of OX40SF2IgG2sigma; also called mAbtyrin

- EC50 [1]: 1.2 µg/mL
- EC50 [2]: > 10 µg/mL
- EC50 [3]: > 10 µg/mL
- IFNγ production by activated CD4 T cells, plate-coated FcγRIIb (FcγRIIB protein): 76 pg/mL
- TNFα production by activated CD4 T cells, plate-coated FcγRIIb (FcγRIIB protein): 29 pg/mL
- IFNγ production by activated CD4 T cells, plate-coated FcγRIIA (FcγRIIA protein): 89 pg/mL
- TNFα production by activated CD4 T cells, plate-coated FcγRIIA (FcγRIIA protein): 28 pg/mL
- % activity at 1 µg/ml with Raji cells (HEK-Blue: OX40 NF-κB reporter) [4]: 7%
- EC50 [5]: 1.01 µg/mL
- ADCC (fold activation) at 1 µg/ml [6]: 1 fold
- ADCP EC50 [7]: 0.012 µg/mL
- EC50 [8]: 0.161 µg/mL
- EC50 [9]: 0.042 µg/mL
B2: OX40SF2IgG2sigma_R2BS29_HC-N (bispecific antibody)
heavy: LPAPKNLVVSRVTEDSARLSWTAPDAAFDSFPIYYWEYRVGGEAIVLTVPGSERSYDLTGLKPGTEYFVYINGVKGGEESRPLSAIFTTGGGGSGGGGSGGGGSGGGGSQVQLVQSGAEVKKPGSSVKVSCKASGYTFKDYTMHWVRQAPGQGLEWIGGIYPNNGGSTYNQNFKDRVTLTADKSTSTAYMELSSLRSEDTAVYYCARMGYHGPHLDFDVWGQGTTVTVSSASTKGPSVFPLAPCSRSTSESTAALGCLVKDYFPEPVTVSWNSGALTSGVHTFPAVLQSSGLYSLSSVVTVPSSNFGTQTYTCNVDHKPSNTKVDKTVERKCCVECPPCPAPPAAASSVFLFPPKPKDTLMISRTPEVTCVVVDVSAEDPEVQFNWYVDGVEVHNAKTKPREEQFNSTFRVVSVLTVLHQDWLNGKEYKCKVSNKGLPSSIEKTISKTKGQPREPQVYTLPPSREEMTKNQVSLTCLVKGFYPSDIAVEWESNGQPENNYKTTPPMLDSDGSFFLYSKLTVDKSRWQQGNVFSCSVMHEALHNHYTQKSLSLSPGK
light: DIQMTQSPSSLSASVGDRVTITCKASQDVGAAVAWYQQKPGKAPKLLIYWASTRHTGVPSRFSGSGSGTDFTLTISSLQPEDFATYYCQQYINYPLTFGGGTKVEIKRTVAAPSVFIFPPSDEQLKSGTASVVCLLNNFYPREAKVQWKVDNALQSGNSQESVTEQDSKDSTYSLSSTLTLSKADYEKHKVYACEVTHQGLSSPVTKSFNRGEC
notes: mAbtyrin: R2BS29 FN3 domain and linker at the N-terminus of the heavy chain of OX40SF2IgG2sigma; also called mAbtyrin
